Assay results published in patent publication US20230183352A1 (published 2023).
Like-named read-outs stand apart in the source and are kept apart here.

Legend:
[1] = biological target: T1, Claudin 18.2 (CLDN18.2), expressed on CHOS-CLDN 18.2 / HEK293-CLDN 18.2 / HCC827-CLDN 18.2 cells (human, UniProt P56856-2 1-261); test: FACS, CHOS-CLDN18.2 cells, 10 µg/ml
T1 construct: whole, on cells; The species is not repeated for the CHOS-CLDN 18.2 cells; also called claudin-18A2
Procedure: The initial concentration of the antibody was 20 μg/mkit was diluted at 1:4, and incubated at 4° C. for 60 min.

[2] = biological target: T1, Claudin 18.2 (CLDN18.2), expressed on …; test: FACS, CHOS-CLDN18.2 cells, 20 µg/ml
Procedure: (§1) The initial concentration of the antibody was 20 μg/ml, it was diluted at 1:4, and incubated at 4° C. for 60 min.

[3] = biological target: T1, Claudin 18.2 (CLDN18.2), expressed on …; test: FACS, CHOS-CLDN18.2 cells, 20 µg/ml; remark: listed apart in the source
Procedure: as §1

[4] = biological target: T1, Claudin 18.2 (CLDN18.2), expressed on …; test: FACS, CHOS-CLDN18.2 cells, 0.005 µg/ml
Procedure: as §1

[5] = biological target: T1, Claudin 18.2 (CLDN18.2), expressed on …; test: FACS, CHOS-CLDN18.2 cells, 5 µg/ml
Procedure: as §1

[6] = biological target: T1, Claudin 18.2 (CLDN18.2), expressed on …; test: FACS, CHOS-CLDN18.2 cells
Procedure: as §1

[7] = biological target: T1, Claudin 18.2 (CLDN18.2), expressed on …; test: FACS, CHOS-CLDN18.2 cells, 0 µg/ml (background)
Procedure: as §1

[8] = biological target: T1, Claudin 18.2 (CLDN18.2), expressed on …; test: FACS, CHOS-CLDN18.2 cells, 5 µg/ml; remark: listed apart in the source
Procedure: as §1

[9] = biological target: T1, Claudin 18.2 (CLDN18.2), expressed on …; test: FACS, CHOS-CLDN18.2 cells, 0 µg/ml (background); remark: listed apart in the source
Procedure: as §1

[10] = biological target: T1, Claudin 18.2 (CLDN18.2), expressed on …; test: FACS, CHOS-CLDN18.2 cells, 0.020 µg/ml
Procedure: as §1

[11] = biological target: T1, Claudin 18.2 (CLDN18.2), expressed on …; test: FACS, CHOS-CLDN18.2 cells, 1.250 µg/ml
Procedure: as §1

[12] = biological target: T1, Claudin 18.2 (CLDN18.2), expressed on …; test: FACS, CHOS-CLDN18.2 cells, 0.078 µg/ml
Procedure: as §1

[13] = biological target: T1, Claudin 18.2 (CLDN18.2), expressed on …; test: FACS, CHOS-CLDN18.2 cells, 0.313 µg/ml
Procedure: as §1

[14] = biological target: T1, Claudin 18.2 (CLDN18.2), expressed on …; test: FACS, CHOS-CLDN18.2 cells, 5 µg/ml; remark: listed apart in the source
Procedure: as §1

[15] = biological target: T1, Claudin 18.2 (CLDN18.2), expressed on …; test: FACS, CHOS-CLDN18.2 cells, 20 µg/ml; remark: listed apart in the source
Procedure: as §1

[16] = biological target: T1, Claudin 18.2 (CLDN18.2), expressed on …; test: FACS, CHOS-CLDN18.2 cells, 5 µg/ml; remark: listed apart in the source
Procedure: as §1

[17] = biological target: T1, Claudin 18.2 (CLDN18.2), expressed on …; test: FACS, CHOS-CLDN18.2 cells, 0 µg/ml (background); remark: listed apart in the source
Procedure: as §1

[18] = biological target: T1, Claudin 18.2 (CLDN18.2), expressed on …; test: FACS, CHOS-CLDN18.2 cells; remark: listed apart in the source
Procedure: as §1

MFI [1]: 145000
FACS reading [2]: 72300
FACS reading [3]: 72300
FACS reading [4]: 2830
FACS reading [5]: 105000
EC50 [6]: 0.27 µg/mL
max [6]: 88600
FACS reading [7]: 732
FACS reading [8]: 105000
FACS reading [9]: 732
FACS reading [10]: 6950
FACS reading [11]: 63700
FACS reading [12]: 18200
FACS reading [13]: 51000
FACS reading [14]: 105000
FACS reading [15]: 72300
FACS reading [16]: 105000
FACS reading [17]: 732
EC50 [18]: 0.27 µg/mL
max [18]: 88600
B1: QP024025 (antibody, human IgG1, V domains shown)
VH: QVQLQQPGAELVRPGASVKLSCKASGYTFTSYWINWVKQRPGQGLEWIGNIYPSDSYTNYNQKFKDKATLTVDKSSSTAYMQLSSPTSEDSAVYYCTRSWRGNSFDYWGQGTTLTVSS
VL: DIVMTQSPSSLTVTAGEKVTMSCKSSQSLLNSGNQKNYLTWYQQKPGQPPKLLIYWASTRESGVPDRFTGSGSGTDFTLTISSVQAEDLAVYYCQNDYSYPFTFGSGTKLEIK
notes: also called IMAB362; 175D10(IMAB362)
